From patent US20230080534A1, “SEMG2 ANTIBODY AND USE THEREOF” (SHANGHAI BIOTROY BIOTECHNIQUE CO., LTD., priority 2020, published 2023)

B1: MM02: mouse monoclonal antibody against SEMG2(497-509), mIgG2b kappa, VH SEQ ID NO:35, VL SEQ ID NO:42 (antibody, V domains shown)
VH: QIQLVQSGPEVKKPGETVRISCKASGYTLTTAGIQWVQKMPGKGLKWIGWINTHSGVPEYAEDFKGRFAFFLETSASTAYLQISNLKNEDTATYFCARLGLLGYWGQGTTLTVSS
VL: DILLTQSPAILSVSPGERVSFSCRASQSIGTTIHWYQQRTNGSPRLLIKYASESISGIPSRFSGSGSGTDFTLSINSVESEDIADYYCQQSNSWPWTFGGGTKLEIKRA
modifications: UNSURE (1)..(115) VH; UNSURE (1)..(109) VL
B2: MM05: mouse monoclonal antibody against SEMG2(497-509), mIgG1 kappa, VH SEQ ID NO:36, VL SEQ ID NO:43 (antibody, V domains shown)
VH: QVQLQQPGAELVRPGASVKLSCEASGYTFTSYWMNWVKQRPGQGLEWIGMIDPSDSETHYNQMFKDKATLTVDKSSSTAYMQLSSLTSEDSAVYYCARYLGGKEGSFDYWGQGTTLTVSS
VL: DIVMSQSPSSLAVSAGEKVTMSCKSSQSLLNSRTRKNYLAWYQQKPGQSPKLLIYWASTRESGVPDRFTGSGSGTDFTLTISSVQAEDLAVYYCKQSYSLPWTFGGGTKLEIKRA
modifications: UNSURE (1)..(120) VH; UNSURE (1)..(115) VL

Legend:
[1] = target: T1, binding between SEMG2 and CD27 (Homo sapiens, UniProt Q02383); test: Antibody blocking ELISA of SEMG2 binding to CD27-Fc; conditions: for effect on the binding between SEMG2 and CD27: antibody 10 μg/mL; for blocking of binding between SEMG2 and CD27 with increasing antibody concentration: wide range of concentration
T1 sequence (Q02383 24-582): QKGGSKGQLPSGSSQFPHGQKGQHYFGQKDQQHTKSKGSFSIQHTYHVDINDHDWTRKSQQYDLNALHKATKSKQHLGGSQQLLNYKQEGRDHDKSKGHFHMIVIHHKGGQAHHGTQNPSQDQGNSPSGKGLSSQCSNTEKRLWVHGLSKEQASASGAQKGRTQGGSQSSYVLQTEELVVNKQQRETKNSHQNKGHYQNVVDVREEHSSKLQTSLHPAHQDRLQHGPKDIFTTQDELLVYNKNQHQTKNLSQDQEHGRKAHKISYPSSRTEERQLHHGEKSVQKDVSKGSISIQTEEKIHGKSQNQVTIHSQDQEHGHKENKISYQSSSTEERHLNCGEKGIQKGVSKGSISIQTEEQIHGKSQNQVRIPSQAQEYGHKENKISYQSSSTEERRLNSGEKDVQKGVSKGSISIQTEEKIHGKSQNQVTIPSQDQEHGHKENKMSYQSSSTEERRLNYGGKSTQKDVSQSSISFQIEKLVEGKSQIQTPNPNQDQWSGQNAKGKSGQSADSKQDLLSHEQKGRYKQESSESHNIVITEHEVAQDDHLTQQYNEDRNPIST
Excerpt: Because SEMG2 (497-509) sequence fragment is the key epitope of SEMG2 binding to CD27, and has a relatively short sequence, so SEMG2 (497-509) was used as an immunogen to prepare antibodies, which is theoretically easier to obtain functional antibody molecules with the function of blocking the binding between SEMG2 and CD27 than using full-length SEMG2 to prepare antibodies. For direct comparison, the differences in effective concentration of producing antibody by the two methods were verified using ELISA in the examples. Antibodies produced with SEMG2 (497-509) as immunogen and antibodies produced with full-length SEMG2 were added into the enzyme-linked immunosorbent assay (ELISA) reaction system at different concentrations (10^-2, 10^-1, 10^0, 10^1, 10^2, 10^3, 10^4 μg/mL), and the ELISA binding values were measured. The specific steps of enzyme-linked immunosorbent assay are as follows: (1) Dissolve SEMG2 protein antigen with 50 mM carbonate coating buffer (pH 9.6) to make the antigen concentration 10 μg/mL, and add into 96-well ELISA plate (purchased from Corning) at 100 μL/well, place at 4° C. overnight. (2) After discarding the coating solution on the next day, wash with PBST for three times, add 150 μL of 1% BSA to each well, and block for 2 hours at 37° C. […] (4) After washing for 5 times with PBST, add 100 of diluted HRP-labeled anti-human Fe secondary antibody, and incubate at 37° C. for 1 hour. (5) After washing with PBST for 5 times, 20 min after developing with chromogenic agent, the A450 absorption value was read using the microplate reader.
The SEMG2 (497-509) sequence was used to synthesize a polypeptide and coupled to a VLP carrier for immunization; HEK293 cells were used to express the full-length SEMG2 protein, and the purity was tested to reach 92%, and the binding activity of SEMG2 protein to CD27 was verified by ELISA. The protein and polypeptide antigens were used to immunize 10 mice respectively, and multiple immunizations were performed to enhance the effect: (1) The first immunization, 50 μg/mice of antigen, multiple subcutaneous injections together with Freund's complete adjuvant, with an interval of 3 weeks; (2) the second immunization; the same dosage and route as above, with incomplete Freund's adjuvant, and with an interval of 3 weeks; (3) the third immunization, the same dosage as above, without adjuvant, intraperitoneal injection with an interval of 3 weeks; (4) the booster immunization, the dose is 50 μg, intraperitoneal injection. 3 days after the last injection, blood was collected to measure its titer and the immune effect, and mice with higher titers were selected for hybridoma fusion screening. After subcloning, the binding of the monoclonal antibodies to the target antigens was detected by ELISA, and the function of different monoclonal antibodies in blocking the binding between SEMG2 and CD27 was measured by ELISA.
First, SEMG2(497-509) epitope-specific antibodies (for example, MM02, MM05) were compared with other epitope-specific antibodies (for example, HPA042767) for their function in blocking binding between SEMG2 and CD27 at different concentration ranges. […] The blocking function of different antibodies (irrelative mouse IgG, MM02, MM05, HPA042767) on binding between SEMG2 and CD27 was analyzed by the ELISA experiment as described in Example 11.
Further, the effects of different antibodies on the binding between SEMG2 and CD27 were compared under the condition of the same antibody concentration. In the ELISA, the same concentration (10 μg/mL) of antibody was used, and the strength of the binding between SEMG2 and CD27 was measured. […]

[2] = tested on: LOVO human colorectal cancer cells; test: Tumor cell killing by activated PBMC, caspase-3/7 apoptosis; type: cell-based; conditions: SEMG2-positive, co-culture with activated PBMC 10:1
Procedure: (§1) To test the above hypothesis, the effects of different epitope-specific antibodies on tumor cell killing by activated PBMC were compared. Specifically, A375 human melanoma and LOVO human colorectal cancer cells highly expressing SEMG2 were seeded in 96-well plate. Human peripheral blood mononuclear cells (PBMC; #70025, Stem Cell) were activated with 100 ng/mL of CD3 antibody, 100 ng/mL, of CD28 antibody, and 1.0 ng/mL of IL2 (#317303; #302913; #589102, BioLegend), respectively, and co-cultured with the above tumor cells at a ratio of 10:1 in presence of fluorescent caspase-3/7 substrate (#4440, Essen Bioscience). After 1.0 hours, cells were observed under fluorescence microscope.
(§2) To verify the above hypothesis, tumor cells with high SEMG2 expression (A375, LOVO) and SEMG2-negative tumor cells (DLD1, NCM460 and NCI-H1975) were selected. Different antibodies (irrelevant mouse IgG antibodies, MM02 or MM05 antibodies) were added during the PBMC killing experiments for the tumor cells.
(§3) To verify the effect of the human antibodies on the function of activated PBMC on tumor cell killing, A375 and LOVO cells were co-cultured with activated PBMC, and H88-93, H88-96, or H88-67 antibody was added at the same time, and the apoptosis ratio of tumor cells were detected.

[3] = tested on: A375 human melanoma cells; test: as above; type: cell-based; conditions: A375, SEMG2-positive, co-culture with activated PBMC 10:1
Procedure: as §1, §2, §3

NCI-H1975 cells = test: Tumor cell killing by activated PBMC; type: cell-based, human; conditions: NCI-H1975, SEMG2-negative
Procedure: as §1, §2

DLD1 cells = test: Tumor cell killing by activated PBMC; type: cell-based, human; conditions: DLD1, SEMG2-negative
Procedure: as §1, §2

NCM460 cells = test: Tumor cell killing by activated PBMC; type: cell-based, human; conditions: NCM460, SEMG2-negative
Procedure: as §1, §2

Row | Molecule | effect on the binding between SEMG2 and CD27 [1] | blocking of binding between SEMG2 and CD27 with increasing antibody concentration [1] | apoptosis tumor cell ratio / killing by activated PBMC [2] | apoptosis tumor cell ratio / killing by activated PBMC [3] | killing by activated PBMC (NCI-H1975 cells) | killing by activated PBMC (DLD1 cells) | killing by activated PBMC (NCM460 cells)
1 | B1 | significantly reduced the binding | gradually decreased | significantly increased the killing | significantly increased the killing | no obvious impact | no obvious impact | no obvious impact
2 | B2 | significantly reduced the binding | gradually decreased | significantly increased the killing | significantly increased the killing | no obvious impact | no obvious impact | no obvious impact
